# Measurements taken from patent US20260242478A1 (published 2026).
# Tests used:
# [1] = biological target: anti-CD28 Fab (SEQ ID NOs: 696, 697); assay: phage binding ELISA; Fab on plate pre-incubated with CD28 antigen as competitor, anti-M13 HRP detection;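 also: crude clonal phage supernatants screened by ELISA, with comparison wells pre-incubated in blocking buffer only, lacking CD28 antigen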
# Protocol: (§1) After panning, phage infected bacteria were plated out and colonies picked into 96 well blocks. Clonal phage was then amplified and separated from bacterial cells via centrifugation.
# (§2) Clonal phage were harvested as crude supematants and screened via standard ELISAs. […] Prior to the addition of clonal phage, wells were incubated with blocking buffer and CD28 antigen or blocking buffer alone. Without washing or aspirating, clonal phage supematants were then added to the wells and incubated for a short time. Wells were then washed followed by detection of bound phage using a horse radish conjugated anti-M13 antibody. Clonal phage of interest were then sent for sequence analysis.
# [2] = biological target: anti-CD28 Fab (SEQ ID NOs: 696, 697); assay: phage binding ELISA; biotinylated Fab on neutravidin plate, clonal phage supernatant, anti-M13 HRP detection;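 also: phage from clones picked after panning, added to wells pre-incubated with blocking buffer with or without CD28 antigen, then briefly incubated and washed before detection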
# Protocol: as §1, §2
# [3] = biological target: T1, Anti-CD28 Fab (SEQ ID NOs: 696, 697); assay: phage ELISA; captured anti-CD28 Fab pre-incubated with CD28 antigen as competitor, anti-M13 HRP;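 also: crude clonal phage supernatants added without washing after CD28 pre-incubation, bound phage detected with HRP anti-M13 antibody, reference wells got blocking buffer lacking CD28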
# T1 construct: In the phage ELISA the Fab was biotinylated and captured on neutravidin coated plates
# T1 sequence (VH, as listed by the source, chain 1 of 2): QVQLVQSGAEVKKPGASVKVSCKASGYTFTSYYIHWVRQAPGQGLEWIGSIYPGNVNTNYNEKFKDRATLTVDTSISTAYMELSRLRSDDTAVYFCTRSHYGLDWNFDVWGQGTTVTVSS
# T1 sequence (VL, as listed by the source, chain 2 of 2): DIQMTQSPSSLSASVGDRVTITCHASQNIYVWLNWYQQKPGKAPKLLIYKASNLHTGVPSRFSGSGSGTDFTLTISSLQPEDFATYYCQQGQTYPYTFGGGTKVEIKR
# Protocol: as §1, §2
# [4] = biological target: T1, Anti-CD28 Fab (SEQ ID NOs: 696, 697); assay: phage ELISA; biotinylated anti-CD28 Fab on neutravidin plate, clonal phage supernatant, anti-M13 HRP
# [5] = biological target: T2, Anti-CD28 Fab (SEQ ID NOs: 696, 697); assay: phage ELISA; plate-bound anti-CD28 Fab pre-incubated with CD28 antigen as competitor, anti-M13 HRP detection
# T2 construct: In the phage ELISA the Fab was biotinylated and captured on neutravidin coated plates
# T2 sequence (VH, as listed by the source, chain 1 of 2): as the sequence (VH, as listed by the source, chain 1 of 2) above
# T2 sequence (VL, as listed by the source, chain 2 of 2): as the sequence (VL, as listed by the source, chain 2 of 2) above
# Protocol: as §1, §2
# [6] = biological target: T2, Anti-CD28 Fab (SEQ ID NOs: 696, 697); assay: phage ELISA; biotinylated anti-CD28 Fab on neutravidin plate, clonal phage supernatant, anti-M13 HRP detection;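 also: crude supernatants of single phage clones picked after panning were screened for binding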
# anti-CD28 Fab (SEQ ID NOs: 696, 697), sequence (VH, as listed by the source, chain 1 of 2): as the sequence (VH, as listed by the source, chain 1 of 2) above
# anti-CD28 Fab (SEQ ID NOs: 696, 697), sequence (VL, as listed by the source, chain 2 of 2): as the sequence (VL, as listed by the source, chain 2 of 2) above
Binder,Anti-CD28 Fab signal in the presence of CD28 [1],"Anti-CD28 Fab (SEQ ID NOs: 696, 697) signal [2]",Anti-CD28 Fab signal in the presence of CD28 (phage binding ELISA) [3],Anti-CD28 Fab signal (phage binding ELISA) [4],other results
YCAGHSPEYMTKCL (tested as crude phage supernatant) [Phage-621],0.09,2.17,,,
"YCDGHLEEYKQKCL (Clonal phage of the Peptide-87 library, tested as crude phage supernatant; not shown: pIII of the bacteriophage to which the peptide is fused) [Phage-615]",,,0.08,2.18,
YCAGHAPEYIQKCL (tested as crude phage supernatant) [Phage-622],0.09,2.17,,,
YCAGHAPEYMQKCL (tested as crude phage supernatant) [Phage-624],0.07,2.16,,,
YCDGHAPEYMEKCM (Tested as clonal phage supernatant) [Phage-598],,,,,"Phage binding ELISA, Anti-CD28 Fab signal in the presence of CD28 [5]: 0.07; Phage binding ELISA, Anti-CD28 Fab signal [6]: 2.21"
"YCMGHLPQYMQKCL (Clonal phage of the Peptide-87 library, tested as crude phage supernatant; not shown: pIII of the bacteriophage to which the peptide is fused) [Phage-616]",,,0.11,2.18,
YCDGHVAEYRDKCL (tested as crude phage supernatant) [Phage-623],0.07,2.17,,,
YCDGHMPEYMWKCL (tested as crude phage supernatant) [Phage-620],0.09,2.17,,,
YCDGHLPEYMWKCI (tested as crude phage supernatant) [Phage-628],0.07,2.15,,,
YCEGHLPQYLQKCL (tested as crude phage supernatant) [Phage-626],0.09,2.16,,,
YCEGHLPQYMKKCL (Tested as clonal phage supernatant) [Phage-595],,,,,"Phage binding ELISA, Anti-CD28 Fab signal in the presence of CD28 [5]: 0.1; Phage binding ELISA, Anti-CD28 Fab signal [6]: 2.22"
"YCDGHLPEYMHKCL (Clonal phage of the Peptide-87 library, tested as crude phage supernatant; not shown: pIII of the bacteriophage to which the peptide is fused) [Phage-608]",,,0.09,2.19,
"YCEGHAEEYMQKCL (Clonal phage of the Peptide-87 library, tested as crude phage supernatant; not shown: pIII of the bacteriophage to which the peptide is fused) [Phage-613]",,,0.06,2.18,
YCEGHTVEYMAKCL (Tested as clonal phage supernatant) [Phage-599],,,,,"Phage binding ELISA, Anti-CD28 Fab signal in the presence of CD28 [5]: 0.08; Phage binding ELISA, Anti-CD28 Fab signal [6]: 2.2"
"YCDGHTQEYIAKCL (Clonal phage of the Peptide-87 library, tested as crude phage supernatant; not shown: pIII of the bacteriophage to which the peptide is fused) [Phage-617]",,,0.06,2.17,
"YCDGHLPEYLSKCL (Clonal phage of the Peptide-87 library, tested as crude phage supernatant; not shown: pIII of the bacteriophage to which the peptide is fused) [Phage-605]",,,0.07,2.19,
"YCDGHLPEYIEKCL (Clonal phage of the Peptide-87 library, tested as crude phage supernatant; not shown: pIII of the bacteriophage to which the peptide is fused) [Phage-609]",,,0.07,2.19,
YCDGHSNEYMAKCL (tested as crude phage supernatant) [Phage-625],0.07,2.16,,,

Binder,Anti-CD28 Fab signal in the presence of CD28 [1],"Anti-CD28 Fab (SEQ ID NOs: 696, 697) signal [2]",Anti-CD28 Fab signal in the presence of CD28 (phage binding ELISA) [3],Anti-CD28 Fab signal (phage binding ELISA) [4],other results
YCDGHSLEYMAKCL (tested as crude phage supernatant) [Phage-630],0.06,2.15,,,
"YCDGHSPLYIWKCL (Clonal phage of the Peptide-87 library, tested as crude phage supernatant; not shown: pIII of the bacteriophage to which the peptide is fused) [Phage-607]",,,0.09,2.19,
"YCDGHAVEYMAKCL (Clonal phage of the Peptide-87 library, tested as crude phage supernatant; not shown: pIII of the bacteriophage to which the peptide is fused) [Phage-611]",,,0.1,2.18,
YCDGHLPEYLPKCL (Tested as clonal phage supernatant) [Phage-603],,,,,"Phage binding ELISA, Anti-CD28 Fab signal in the presence of CD28 [5]: 0.09; Phage binding ELISA, Anti-CD28 Fab signal [6]: 2.19"
YCDGHTQEYMAKCL (tested as crude phage supernatant) [Phage-618],0.07,2.17,,,
YCDGHSAEYMWKCL (tested as crude phage supernatant) [Phage-629],0.08,2.15,,,
YCDGHAPEYMLKCL (Tested as clonal phage supernatant) [Phage-601],,,,,"Phage binding ELISA, Anti-CD28 Fab signal in the presence of CD28 [5]: 0.07; Phage binding ELISA, Anti-CD28 Fab signal [6]: 2.2"
YCEGHAPEYMLKCL (Tested as clonal phage supernatant) [Phage-597],,,,,"Phage binding ELISA, Anti-CD28 Fab signal in the presence of CD28 [5]: 0.07; Phage binding ELISA, Anti-CD28 Fab signal [6]: 2.21"
YCDGHAPDYMLKCL (Tested as clonal phage supernatant) [Phage-602],,,,,"Phage binding ELISA, Anti-CD28 Fab signal in the presence of CD28 [5]: 0.09; Phage binding ELISA, Anti-CD28 Fab signal [6]: 2.2"
"YCDGHSIEYRWKCL (Clonal phage of the Peptide-87 library, tested as crude phage supernatant; not shown: pIII of the bacteriophage to which the peptide is fused) [Phage-612]",,,0.06,2.18,
YCDGHKAEYMDKCL (Tested as clonal phage supernatant) [Phage-600],,,,,"Phage binding ELISA, Anti-CD28 Fab signal in the presence of CD28 [5]: 0.07; Phage binding ELISA, Anti-CD28 Fab signal [6]: 2.2"
"YCDGHAPEYIYKCL (Clonal phage of the Peptide-87 library, tested as crude phage supernatant; not shown: pIII of the bacteriophage to which the peptide is fused) [Phage-614]",,,0.06,2.18,
YCEGHLPVYMWKCL (tested as crude phage supernatant) [Phage-619],0.09,2.17,,,
YCDGHMPEYIAKCL (Tested as clonal phage supernatant) [Phage-604],,,,,"Phage binding ELISA, Anti-CD28 Fab signal in the presence of CD28 [5]: 0.08; Phage binding ELISA, Anti-CD28 Fab signal [6]: 2.19"
"YCDGHLPQYKAKCL (Clonal phage of the Peptide-87 library, tested as crude phage supernatant; not shown: pIII of the bacteriophage to which the peptide is fused) [Phage-610]",,,0.09,2.19,
"YCAGHLPEYFLKCL (Clonal phage of the Peptide-87 library, tested as crude phage supernatant; not shown: pIII of the bacteriophage to which the peptide is fused) [Phage-606]",,,0.08,2.19,
YCDGHIEEYRAKCL (Tested as clonal phage supernatant) [Phage-596],,,,,"Phage binding ELISA, Anti-CD28 Fab signal in the presence of CD28 [5]: 0.07; Phage binding ELISA, Anti-CD28 Fab signal [6]: 2.21"
YCDGHVAEYMAKCL (tested as crude phage supernatant) [Phage-627],0.07,2.16,,,
